{"source": "patent CN101228187A", "about": "(UNIV RAMOT, dated 2008)", "binders": {"B1": {"name": "F2 scFv (scFv)", "scFv": "VQLLESGGGLVQPGGSLRLSCAASGFTFSGYWMHWVRQAPGKGLEWVSEISGSGDSTHYGDSVKGRFTISRDNSKNTLYLQMNSLRAEDTAVYYCARGRNGSLDYWGQGTLVTVSSGSAGGGGSGGGGSGGGGSDIVLTQPPSASGTPGQRVTISCSGTSSNIGADYDVHWYQQLPGKAPKLLIYDNNKRPSGVSDRFSGSKSGTSASLAISGLRSEDEADYYCAAWDSSLSSVVFGGGTQLTV", "notes": "also called TAR1; scFv F2"}}, "target": "MAP-PrP, multiple antigen peptide presenting amino acids 144-153 of human prion protein (human)", "test": "ELISA (Fig. 9)"}
{"binder": "B1", "values": [{"measurement": "binding result", "value": "no binding"}]}
